# Several values for one entry are separate records, joined by “and”; a condition that tells them apart may be missing. Equal values may be shown once. Read-outs that look alike come from different tables or passages of the source. Ends that are not written are not given here.
# B1: Rat BP: rat myelin basic protein (protein, UniProt P02688 2-195, looked up)
# Myelin basic protein: ASQKRPSQRHGSKYLATASTMDHARHGFLPRHRDTGILDSIGRFFSGDRGAPKRGSGKVPWLKQSRSPLPSHARSRPGLCHMYKDSHTRTTHYGSLPQKSQRTQDENPVVHFFKNIVTPRTPPPSQGKGRGLSLSRFSWGAEGQKPGFGYGGRASDYKSAHKGFKGAYDAQGTLSKIFKLGGRDSRSGSPMARR
# B2: GPBP: guinea pig basic protein, encephalitogen (protein, UniProt P25188 1-167, looked up)
# Myelin basic protein: ASQKRPSQRHGSKYLATASTMDHARHGFLPRHRDTGILDSIGRFFGSDRAAPKRGSGKDSHHAARTTHYGSLPQKSQRSQDENPVVHFFKNIVTPRTPPPSQGKGRGLSLSRFSWGAEGQKPGFGYGGRADYKSKGFKGAHDAQGTLSKIFKLGGRDSRSGSPMARR
# Assays:
# [1] = tested on: T cell lines derived from rats protected from EAE; assay: Proliferation of LN cells and T cell lines from rats protected by TCR Vβ8 peptide (Table 12); type: cell-based, rat
# [2] = tested on: LN cells and T cell lines; assay: Proliferation of LN cells and lines from rats protected by transfer of TCR Vβ8 peptide-specific T cells (Table 15); type: cell-based, rat
# Protocol: ^1 Lymph node (LN) cells were collected 20 days after simultaneous
# ^2 LN cells were tested directly (NL column).
# ^3 T cell lines were selected from these LN cells by culture with TCR
# [3] = tested on: popliteal LN cells; assay: Proliferation of LN cells after EAE induction and TCR peptide treatment (Table 23); type: cell-based, Lewis rats
# Protocol: The proliferative responses and specificity of T cells in the draining LN (popliteal) of rats treated with TCR Vβ8(39-59) peptide for EAE on day 13 after disease induction were examined (Table 23). On day 0, Lewis rats received an EAE-inducing regimen of GP-BP+CFA SC into their hind footpads. […] On day 20, about 7 days after onset of EAE, popliteal LNs were removed and T cell proliferative activity in response to the indicated antigens or mitogens were tested directly.
# Results are shown as net ^3 Hthymidine incorporation of 5 ×
# [4] = tested on: peptide-selected T cells; assay: Proliferation of peptide-selected T cells after in vivo TCR peptide treatment (Table 24); type: cell-based, Lewis rats
# Source text: LN cells from control rats responded best to Con A, PPD, GPBP and GPBP (72-89), and GPBP (45-89) (which includes the 72-89 sequence and another immunogenic but non-encephalitogenic peptide). […] LN cells from rats treated ID with the TCR peptide esponded similarly to the control cells, with the exception of a reduced response to GPBP (72-89). […] An aliquot of each of the above 3 groups of LN cells was stimulated in culture with either GPBP or with the TCR peptide for 3 days, and the cells expanded in IL-2 for 5 more days. The proliferative responses to the various antigens and mitogens of these selected T cells were examined, as above.
# [5] = tested on: clone C455-69; assay: Proliferation response of clone C455-69 to BP peptides (Table 28); type: cell-based, rat
# Protocol: Proliferation assays: Proliferation assays were performed in 96-well microtiter plates. 2×10^4 T cells and 10^6 irradiated thymocytes/well were incubated with stimulation medium only, ConA, or antigen at 37C in 7% CO2. The cultures were incubated for 72 h, the last 18 h in the presence of 0.5 Bq ^3 H-Tdr. The cells were harvested onto glass fiber filters and TCR uptake was assessed by liquid scintillation. Mean CPM wre calculated from triplicate wells. The standard deviation from replicate wells varied <10% from the mean values.
# the homologous RtBP sequence. Five μg/ml ConA or 50 μg/ml of each
# [6] = tested on: lymph node cells and Vβ8-44-54 selected T cell line
# [7] = tested on: T cell immunity; assay: T cell immunity / DH response induced by peptide; type: in vivo; details: Lewis rats
# Source text: Immunogenicity of peptides useful in the present invention can be screened by well-known methods, such as use of a DH response in an animal. In such a response, an animal is "sensitized" by injection of an appropriate dose of an antigen, typically subcutaneously (SC), frequently with an adjuvant, such as complete Freund's adjuvant (CFA). Generally about 5-15 days later, the response is "elicited" by challenging the animal, typically intradermally (ID), with an appropriate dose of the antigen, typically in saline or other buffer. The response is assessed 24-48 hours later. […]
# The desired peptides, with sequences determined as described above, are prepared using standard synthesis techniques including solution and solid phase sequential amino acid conjugation and recombinant production in prokaryotic or eukaryotic hosts. Verification that the peptide prepared is immunogenic can easily be determined using a DH reaction in an animal (e.g., mouse or rat), as described above. […] The ear swelling response, measured 24 or 48 hours after challenge, serves as a simple and reliable measure of the presence of T cell-mediated immunity to the peptide.
# [8] = tested on: EAE; assay: Prevention of EAE by immunization with TCR peptide (Example VI); type: in vivo, Lewis rats; details: Lewis rats
# Source text: EAE is a well-recognized rat model of the human autoimmune disease, multiple sclerosis. […] In this model, the disease is induced by injecting the subject rat with an encephalitogenic form of myelin basic protein, such as, for example, guinea pig basic protein (GPBP) or a synthetic peptide that corresponds to residues 72-89 of GPBP (GPBP(72-89)). Injection of either of these peptides in complete Freund's adjuvant (CFA) induces encephalitogenic T cell clones that utilize preferentially the rat homologs of mouse TCR Vα2 and Vβ8 genes (Chou, Y. K., et al., J. Neurosci. Res. 22:181-187 (1989); Burns, F. R., et al., J. Exp. Med. 169:27-39 (1989)).
# ^1 EAE was induced by SC challenge with 50 μg GPBP + 400 μg
# ^2 Rats were injected SC with either: (1) 100 μg of the TCR peptid
# ^3 Values represent the mean of the maximum severity of EAE. 0, no
# [9] = tested on: LNC and T cell lines; assay: T cell proliferation after treatment of EAE with TCR Vβ8 39-59/CFA (Table 27); type: cell-based, rats
# Protocol: Lymphocyte Proliferation: Activation of T cells was measured by ^3 H-Tdy uptake. 500,000 lymph node cells or 20,000 line cells in the presence of 1 million irradiated thymic accessory cells were incubated with culture medium and antigens in microtiter wells for 18 hours prior to the addition of 0.5 μBq labeled thymidine. The cell cultures were harvested onto glass fiber filters and counted by liquid scintillation techniques. Mean CPM were calculated from triplicate cultures. Standard deviations (SD) from replicate cultures varied <10% from the mean value.
# ^a Treated rats were injected s.q. with 50 μg TCR Vβ839-59
# ^b LW cells collected after the untreated group recovered from EAE
# [10] = tested on: EAE; assay: Prevention and suppression of EAE by immunization with TCR Vβ8(39-59) (Table 17); type: in vivo, Lewis rats; details: antigen alone, day 0 (no TCR peptide)
# [11] = tested on: EAE; assay: Prevention, suppression and treatment of EAE with TCR Vβ8-39-59 peptide (Table 25); type: in vivo, Lewis rats; details: GP-BP/CFA only
# [12] = tested on: DTH response; assay: Delayed hypersensitivity responses to TCR peptides, ear swelling (Table 26); type: in vivo, Lewis rats
# [13] = tested on: clones C372-89 and C455-69; assay: Coculture of clones C372-89 and C455-69, proliferation (Table 31); type: cell-based, rat
# Protocol: 50 μg of antigen was added to 10,000 cells of each clone stimulated in […]
# [14] = 50 μg/ml peptide (5 μg/ml ConA), 20,000 clone C455-69 cells, 3 days
# [15] = 1st value column (head not given; LN cells of protected rats)
# [16] = 2nd value column (head not given, TCR Vβ8(39-59)-selected line)
# [17] = 4th value column (head not given; mixed TCR- and BP-specific T cells)
# [18] = Treated rats (TCR Vβ8 39-59/CFA at onset), LNC
# [19] = Untreated rats (GPBP/CFA only), LNC
# [20] = A. TCR Vβ8 peptide-specific T cell transfer
# [21] = 50 μg antigen, 10,000 cells, 3 days
molecule,measurement,setting,value
"Concanavalin A [Con A, reference compound]",T Cell Proliferation,[1],99 and 96 and 80 and 123
same,"Proliferation, TCR Peptide Selected Line",[2],46
same,T Cell Proliferation,[3],85 and 78 and 146
same,Proliferative response,[4],76 and 52 and 68 and 95
same,Response CPM/1000 ± S.D.,[5],229 ± 15
same,Response of Lymph Node Cells,[6],293 ± 39
same,"Response of T Cell Line, percent (in parentheses)",[6],88% and 93% and 106%
"LRLIHYSYDVN [Vβ8-44-54, LRLIHYSYDVN]",inhibition of T cell response,[6]; 72 h,76%
SGKDSH HATRTTHYGSLPQK [55-74 modified],Response CPM/1000 ± S.D.,[5]; [14],150 ± 15 CPM/1000
KQNNNHNNMYWYRQDMG [Vβ8 (25-41)],induction of T cell immunity,[7],does not induce T cell immunity
same,protection from EAE,[8],does not protect Lewis rats from EAE
same,Response of Lymph Node Cells,[6],14 ± 0
same,Response of T Cell Line,[6],6 ± 1
"APKRGSGKDSH HAARTTH (APKRGSGKDSHHAARTTH) [43-67, Gp-BP fragment 43-67 (printed from residue 50)]",Response CPM/1000 ± S.D.,[5]; [14],249 ± 12 CPM/1000
APKRGSGKDSH HAARTTHYG (APKRGSGKDSHHAARTTHYG) [50-69],Response CPM/1000 ± S.D.,[5]; [14],277 ± 14 CPM/1000
B1,T Cell Proliferation,[1]; [15],11 cpm × 10^-3
same,T Cell Proliferation,[1]; [16],1 cpm × 10^-3
same,T Cell Proliferation,[1]; [17],9 cpm × 10^-3
same,T Cell Proliferation,[1]; GPBP-selected line,9 cpm × 10^-3
same,Proliferative response,"[4]; day 13 inj. Control, selection with GPBP",46
same,Proliferative response,"[4]; day 13 inj. TCR Vβ 8(39-59) + CFA, selection with GPBP",14
same,Proliferative response,"[4]; day 13 inj. TCR Vβ 8(39-59) + CFA, selection with Vβ 8(39-59)",4
same,Proliferative response,"[4]; day 13 inj. TCR Vβ 8(39-59) ID, selection with CPBP (so in the source)",36
same,Proliferation,[9]; [18],49 ± 2 CPM/1000
same,Proliferation,"[9]; Treated rats, line BP/1st",14 ± 2 CPM/1000
same,Proliferation,"[9]; Treated rats, line Vβ8/1st",4 ± 1 CPM/1000
same,Proliferation,[9]; [19],40 ± 2 CPM/1000
same,Proliferation,"[9]; Untreated rats, line BP/1st",46 ± 3 CPM/1000
same,Proliferation,"[9]; Untreated rats, line Vβ8/1st",11 ± 4 CPM/1000
same,Response CPM/1000 ± S.D.,[5]; [14],0.2 ± 0.1 CPM/1000
B2,T Cell Proliferation,[1]; [15],16 cpm × 10^-3
same,T Cell Proliferation,[1]; [16],3 cpm × 10^-3
same,T Cell Proliferation,[1]; [17],102 cpm × 10^-3
same,T Cell Proliferation,[1]; GPBP-selected line,93 cpm × 10^-3
same,"Proliferation, GPBP Selected Line",[2]; [20],16 cpm × 10^-3
same,"Proliferation, TCR Peptide Selected Line",[2]; [20],0 cpm × 10^-3
same,"Proliferation, LN","[2]; A. rats given 3 × 10^7 TCR Vβ8 peptide-specific T cells + GPBP/CFA, LN cells day 20",80 cpm × 10^-3
same,"Proliferation, GPBP Selected Line",[2]; B. Saline + GPBP/CFA,65 cpm × 10^-3
same,"Proliferation, LN",[2]; B. Saline + GPBP/CFA,32 cpm × 10^-3
same,Clinical Score,[10],3.1 ± 0.6
same,T Cell Proliferation,[3]; LN cells day 20 of Control rats (saline day 13),49 cpm × 10^-3
same,T Cell Proliferation,[3]; LN cells of rats given TCR Vβ 8(39-59) 50 μg ID day 13,44 cpm × 10^-3
same,T Cell Proliferation,[3]; LN cells of rats given TCR Vβ 8(39-59) 100 μg SC (in CFA) day 13,50 cpm × 10^-3
same,Duration,[11],6.6 ± 0.9 days
same,EAE/TOTAL,[11],26/26
same,Max Clin. Signs,[11],3.4 ± 0.2
same,Onset,[11],12
same,48 Hour DTH Response,"[12]; GP-BP/CFA immunized rats, ear test Day 12 (EAE onset)",35 ± 5
same,48 Hour DTH Response,"[12]; Normal or saline/CFA rats, ear test Day 12",5 ± 3
same,net proliferation of reactive cells,[9]; GP-MBP-selected line from TCR peptide-treated rats,"12,000 CPM"
same,net proliferation of reactive cells,[9]; GP-MBP-selected line from untreated EAE-recovered rats,"84,000 CPM"
same,Proliferation,[9]; [18],50 ± 7 CPM/1000
same,Proliferation,"[9]; Treated rats, line BP/1st",29 ± 6 CPM/1000
same,Proliferation,"[9]; Treated rats, line Vβ8/1st",6 ± 1 CPM/1000
same,Proliferation,[9]; [19],49 ± 5 CPM/1000
same,Proliferation,"[9]; Untreated rats, line BP/1st",99 ± 9 CPM/1000
same,Proliferation,"[9]; Untreated rats, line Vβ8/1st",23 ± 2 CPM/1000
same,Proliferation,"[9]; Untreated rats, line Vβ14/1st",11 ± 1 CPM/1000
same,Response CPM/1000 ± S.D.,[5]; [14],203 ± 7 CPM/1000
same,"Proliferation, C372-89",[13]; [21],40 ± 3 CPM/1000
same,"Proliferation, C455-69",[13]; [21],50 ± 9 CPM/1000
same,"Proliferation, C372-89 + C455-69","[13]; coculture, 10,000 cells of each clone",91 ± 12 CPM/1000
